Assay results as given in patent US8188039 (ARK THERAPEUTICS GROUP, dated 2012).

Molecular target: the molecule itself
Test: homodimer formation, SDS-PAGE on non-reducing conditions
Procedure: Purified proteins were analyzed by SDS-PAGE in both denaturing and non-denaturing conditions, staining the gels with Silver Snap Stain KitII (Pierce) or Page Blue Protein Staining Solution (Fermentas). Alternatively, proteins were transferred to nitrocellulose membrane and detected using a VEGF-D monoclonal antibody (MAB286, R&D Systems).
Covalent dimer formation: The ability of VEGF-$D^{\Delta N \Delta C}$, VEGF-$D^{\Delta N \Delta C}$25A and VEGF-$D^{\Delta N \Delta C}$53A to form covalent dimers was evaluated by SDS-PAGE on non-reducing conditions. […] As expected, covalent dimer formation of VEGF-$D^{\Delta N \Delta C}$53A was hindered.

| Protein | binding result |
| --- | --- |
| VEGF-D^ΔNΔC (ligand, not shown: small tags and cut ends, Amino acids 93-201 of wild-type VEGF-D with N-terminal Flag-tag and C-terminal 6xHis; found partially as a covalent dimer, otherwise non-covalent dimer or monomer; also called mature form of VEGF-D; native VEGF-D^ΔNΔC) FYDIETLKVIDEEWQRTQCSPRETCVEVASELGKSTNTFFKPPCVNVFRCGGCCNEESLICMNTSTSYISKQLFEISVPLTSVPELVPVKVANHTGCKCLPTAPRHPYSHHHHHH | binds |
| VEGF-D^ΔNΔC25A (ligand, not shown: small tags and cut ends, Formed more covalent dimer than the native form; also called Cys25 to Ala mutant of VEGF-D^ΔNΔC) FYDIETLKVIDEEWQRTQCSPRETAVEVASELGKSTNTFFKPPCVNVFRCGGCCNEESLICMNTSTSYISKQLFEISVPLTSVPELVPVKVANHTGCKCLPTAPRHPYSHHHHHH | binds |
